Assay results reported in US20230183314A1.

Assays:
[1] = target: human prostate specific membrane antigen (PSMA) (human) (UniProt Q04609); assay: flow cytometry, 22Rv1 cells (low PSMA expression) stained with the PE conjugate; number printed over the white bar
[2] = target: human prostate specific membrane antigen (PSMA) (human) (UniProt Q04609); assay: flow cytometry, LNCaP cells (high PSMA expression) stained with the PE conjugate; number printed over the white bar

human prostate specific membrane antigen (PSMA) (human), sequence (Q04609 whole entry): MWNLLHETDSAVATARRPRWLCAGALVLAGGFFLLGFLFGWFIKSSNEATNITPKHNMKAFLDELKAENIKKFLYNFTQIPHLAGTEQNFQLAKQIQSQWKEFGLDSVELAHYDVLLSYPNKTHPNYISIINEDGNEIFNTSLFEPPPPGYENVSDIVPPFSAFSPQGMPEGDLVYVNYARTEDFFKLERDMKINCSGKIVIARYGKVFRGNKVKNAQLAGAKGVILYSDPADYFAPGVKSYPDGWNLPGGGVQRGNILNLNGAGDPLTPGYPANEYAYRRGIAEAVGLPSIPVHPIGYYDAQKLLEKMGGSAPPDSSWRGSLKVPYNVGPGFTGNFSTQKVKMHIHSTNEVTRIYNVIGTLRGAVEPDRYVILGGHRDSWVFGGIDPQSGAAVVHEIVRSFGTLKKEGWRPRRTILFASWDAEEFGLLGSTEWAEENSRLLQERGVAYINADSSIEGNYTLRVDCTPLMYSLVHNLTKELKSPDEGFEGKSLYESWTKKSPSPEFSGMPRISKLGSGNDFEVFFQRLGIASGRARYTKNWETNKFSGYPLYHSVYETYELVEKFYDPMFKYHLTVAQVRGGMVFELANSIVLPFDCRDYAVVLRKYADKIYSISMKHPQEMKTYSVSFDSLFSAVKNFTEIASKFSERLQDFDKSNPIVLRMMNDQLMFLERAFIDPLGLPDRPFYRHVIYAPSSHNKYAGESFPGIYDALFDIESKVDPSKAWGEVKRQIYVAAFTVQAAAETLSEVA

## Anti PSMA antibody-PE conjugate from Biolegend (clone LNI-17 catalog #342504)
[1]
  MFI: 13.7
[2]
  MFI: 263
